The assay addresses HIV-1 Tat, recombinant wild type Tat protein (HIV-1, UniProt P04608). Put plainly: cell-based or functional assay.

B1: Tat-Stimulatory Factor protein Tat-SF1 (pp140) (other)
chain: MSGTNLDGNDEFDEQLRMQELYGDGKDGDTQTDAGGEPDSLGQQPTDTPYEWDLDKKAWFPKITEDFIATYQANYGFSNDGASSSTANVEDVHARTAEEPPQEKAPEPTDARKKGEKRKAESGWFHVEEDRNTNVYVSGLPPDITVDEFIQLMSKFGIIMRDPQTEEFKVKLYKDNQGNLKGDGLCCYLKRESVELALKLLDEDEIRGYKLHVEVAKFQLKGEYDASKKKKKCKDYKKKLSMQQKQLDWRPERRAGPSRMRHERVVIIKNMFHPMDFEDDPLVLNEIREDLRVECSKFGQIRKLLLFDRHPDGVASVSFRDPEEADYCIQTLDGRWFGGRQITAQAWDGTTDYQVEETSREREERLRGWEAFLNAPEANRGLSVQILSLLRKAGPSRARHFSEHPSTSKMNAQETATGMAFEEPIDEKKFEKTEDGGEFEEGASENNAKESSPEKEAEEGCPEKESEEGCPKRGFEGSCSQKESEEGNPVRGSEEDSPKKESKKKTLKNDCEENGLAKESEDDLNKESEEEVGPTKESEEDDSEKESDEDCSEKQSEDGSEREFEENGLEKDLDEEGSEKELHENVLDKELEENDSENSEFEDDGSEKVLDEEGSEREFDEDSDEKEEEEDTYEKVFDDESDEKEDEEYADEKGLEAADKKAEEGDADEKLFEESDDKEDEDADGKEVEDADEKLFEDDDSNEKLFDEEEDSSEKLFDDSDERGTLGGFGSVEEGPLSTGSSFILSSDDDDDDI
modifications: phosphorylated by its associated kinase in the kinase reactions (gamma-32P ATP); sites not stated
On to B1, for which the “fold activation by Tat of an HIV-1 LTR-CAT reporter (pBennCAT) in HeLa cells co-transfected with pSV-Tat-SF1, relative to empty vector” value is 5.2 fold.

For the origin of these results see US6150515, “Tat-SF: cofactor for stimulation of transcriptional elongation by HIV-1 Tat” (Massachusetts Institute of Technology, dated 2000).
